The text below walks through data of article PMC11626198, “Molecular insights into the interaction between a disordered protein and a folded RNA”.

The target of this data set is T1, SERF (Small ERDK-Rich Factor) (Saccharomyces cerevisiae, UniProt Q3E7B7).
T1 sequence: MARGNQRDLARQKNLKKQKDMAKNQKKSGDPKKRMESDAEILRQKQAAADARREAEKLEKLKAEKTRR
Nature of the data set: fluorescence anisotropy; 1:1 model, KD,app; Anisotropy buffer not given in the material; NMR at 27 C; native IM-MS in 100 mM ammonium acetate pH 7.5. The following applies: protein: recombinant, tags: His6-SUMO removed by ULP1 (scarless).

B1: FAM-(rU)30 (ssRNA)
RNA: UUUUUUUUUUUUUUUUUUUUUUUUUUUUUU
Turning to B1, for the setting “single strand”, the Kd was 1900 ± 200 nM.

B2: FAM-TAR (structured_RNA)
RNA: GGCAGAUCUGAGCCUGGGAGCUCUCUGCC
For the molecule B2, the Kd (hairpin with UCU bulge and hexanucleotide loop) came to 670 ± 40 nM.
